Results reported in patent publication US20060165680A1.

How the values were obtained:
[1] = molecular target: TAG-72 positive bovine submaxillary mucin (BSM) (bovine); assay: SPR (BIAcore X), control Fab over immobilised BSM, BSA reference
[2] = molecular target: TAG-72 expressed on the cell surface of Jurkat cells (human); assay: flow cytometry on Jurkat cells expressing cell-surface TAG-72, 1 ug antibody, FITC-conjugated mouse anti-human antibody
[3] = molecular target: TAG-72 expressed on the cell surface of Jurkat cells (human); assay: flow cytometry on Jurkat cells expressing cell-surface TAG-72, antibody amount not given, FITC-conjugated mouse anti-human antibody

| % Gated, marker M1 [2] [%] | % Gated, marker M2 [2] [%] | % Total, marker M1 [2] [%] | % Total, marker M2 [2] [%] | Mean, marker All [2] | Mean, marker M1 [2] | Mean, marker M2 [2] | Substance | koff [1] [s⁻¹] | also measured |
| --- | --- | --- | --- | --- | --- | --- | --- | --- | --- |
| – | – | – | – | – | – | – | Fab derived from human IgG | 0.0138 | – |
| – | – | – | – | – | – | – | Fab derived from murine CC49 | 0.000104 | – |
| 70.8 | 29.4 | 60.6 | 25.2 | 18 | 4.36 | 50.9 | HuCC49 (antibody) | – | – |
| 27.2 | 73 | 12.2 | 32.7 | 41.6 | 5.92 | 54.8 | cCC49 (antibody) | – | – |
| – | – | – | – | – | – | – | human immunoglobulin G (HuIgG) control (antibody) | – | % Gated, marker M1 [3]: 99.7%; % Gated, marker M2 [3]: 0.31%; % Total, marker M1 [3]: 92.1%; % Total, marker M2 [3]: 0.29%; Mean, marker All [3]: 3.54; Mean, marker M1 [3]: 3.49; Mean, marker M2 [3]: 20.5 |
